Holding throughout (assay): cell-based or functional assay
For assay [1], the target named is T1, US28 (human cytomegalovirus, UniProt P69332 1-354).
T1 sequence: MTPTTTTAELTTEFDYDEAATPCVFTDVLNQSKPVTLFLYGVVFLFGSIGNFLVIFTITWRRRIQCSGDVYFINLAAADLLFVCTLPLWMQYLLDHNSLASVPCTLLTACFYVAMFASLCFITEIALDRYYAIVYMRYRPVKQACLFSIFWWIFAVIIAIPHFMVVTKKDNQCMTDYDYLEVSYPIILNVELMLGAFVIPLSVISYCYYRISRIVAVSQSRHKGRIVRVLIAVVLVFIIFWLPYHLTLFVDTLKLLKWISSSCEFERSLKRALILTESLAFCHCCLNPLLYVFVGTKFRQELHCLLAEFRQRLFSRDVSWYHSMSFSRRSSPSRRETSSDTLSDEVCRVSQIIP

Another assay addresses T2, CX3CR1 (human, UniProt P49238 1-355).
T2 sequence: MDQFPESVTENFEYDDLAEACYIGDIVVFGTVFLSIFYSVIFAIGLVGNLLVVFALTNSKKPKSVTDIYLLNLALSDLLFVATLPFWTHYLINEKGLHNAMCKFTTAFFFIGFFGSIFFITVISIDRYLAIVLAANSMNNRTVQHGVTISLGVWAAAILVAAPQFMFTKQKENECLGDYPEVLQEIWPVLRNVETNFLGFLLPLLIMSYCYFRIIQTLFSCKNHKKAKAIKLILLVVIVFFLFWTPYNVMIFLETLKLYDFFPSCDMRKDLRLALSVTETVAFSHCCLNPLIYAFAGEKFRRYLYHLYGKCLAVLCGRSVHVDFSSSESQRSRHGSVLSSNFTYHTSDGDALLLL

In assay [2] the target is T1, US28. The source holds these as a separate data set.

B1: SYN001 (other)
chain: MQHHGVTKCNITCSKMTSKIPVALLIHYQQNQASCGKRAIILETRQHRLACADPKEQWVKDAMQHLDRQAAALTRNRQPRGWEQLEQSGYPVQRLVALYLAARLSWNQVDQVIRNALASPGSGGDLGEAIREQPEQARLALTLAAAESERFVRQGTGNDEAGAASGPADSGDALLERNYPTGAEFLGDGGDISFSTRGTQNWTVERLLQAHRQLEERGYVFVGYHGTFLEAAQSIVFGGVRARSQDLDAIWRGFYIAGDPALAYGYAQDQEPDARGRIRNGALLRVYVPRSSLPGFYRTGLTLAAPEAAGEVERLIGHPLPLRLDAITGPEEEGGRLETILGWPLAERTVVIPSAIPTDPRNVGGDLDPSSIPDKEQAISALPDYASQPGKPPKDE
On to B1, for which, in the assay with US28 [1], the “Log IC50, cell killing assay” value is -10.7 log IC50; concentration unit not printed and the “Selectivity Ratio US28/CX3CR1 (cell killing IC50)” value came to 718 ratio. Besides, the “Log IC50, cell killing assay” value with CX3CR1 was -7.82 log IC50; concentration unit not printed. In the assay with US28 [2], the “EC50 (log), potency assay; SYN001 1 mg/L, 0 min in perfusate at 37 C” value was -9.95 log EC50; concentration unit not printed; the “EC50 (log), potency assay; SYN001 1 mg/L, 15 min in perfusate at 37 C” value was -9.95 log EC50; concentration unit not printed; the “EC50 (log), potency assay; SYN001 1 mg/L, 180 min in perfusate at 37 C” value is -10 log EC50; concentration unit not printed; the “EC50 (log), potency assay; SYN001 1 mg/L, 300 min in perfusate at 37 C” value was -9.93 log EC50; concentration unit not printed.

Source of the values: patent US20240147984A1 (SYNKLINO A S, published 2024).
